We go through 1 protein from PMC3070544 (Structure (London, England : 1993), 2011).

This series deals with the molecule itself. Put plainly: AUC.

B1: mouse E-cadherin EC1-5 ectodomain, wild type (domain or fragment)
chain: DWVIPPISCPENEKGEFPKNLVQIKSNRDKETKVFYSITGQGADKPPVGVFIIERETGWLKVTQPLDREAIAKYILYSHAVSSNGEAVEDPMEIVITVTDQNDNRPEFTQEVFEGSVAEGAVPGTSVMKVSATDADDDVNTYNAAIAYTIVSQDPELPHKNMFTVNRDTGVISVLTSGLDRESYPTYTLVVQAADLQGEGLSTTAKAVITVKDINDNAPVFNPSTYQGQVPENEVNARIATLKVTDDDAPNTPAWKAVYTVVNDPDQQFVVVTDPTTNDGILKTAKGLDFEAKQQYILHVRVENEEPFEGSLVPSTATVTVDVVDVNEAPIFMPAERRVEVPEDFGVGQEITSYTAREPDTFMDQKITYRIWRDTANWLEINPETGAIFTRAEMDREDAEHVKNSTYVALIIATDDGSPIATGTGTLLLVLLDVNDNAPIPEPRNMQFCQRNPQPHIITILDPDLPPNTSPFTAELTHGASVNWTIEYNDAAQESLILQPRKDLEIGEYKIHLKLADNQNKDQVTTLDVHVCDCEGTVNNCMKA
modifications: O-linked glycosylation observed in the structure
As for B1, the Kd was ~100 µM.
